Test results reported in PMC3658276, “Plant stem cell maintenance involves direct transcriptional repression of differentiation program”.

T1: WUSCHEL (His-WUS) (UniProt Q9SB92 1-292)
T1 sequence: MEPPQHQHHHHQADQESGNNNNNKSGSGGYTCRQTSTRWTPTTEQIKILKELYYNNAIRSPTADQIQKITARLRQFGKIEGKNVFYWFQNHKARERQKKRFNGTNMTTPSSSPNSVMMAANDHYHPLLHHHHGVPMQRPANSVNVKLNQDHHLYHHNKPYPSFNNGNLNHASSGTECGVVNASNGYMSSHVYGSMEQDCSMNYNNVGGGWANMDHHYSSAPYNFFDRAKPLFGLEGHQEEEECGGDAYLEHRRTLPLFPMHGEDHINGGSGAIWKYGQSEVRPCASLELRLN

B1: KAN1 -1100 oligo (dsDNA)
DNA 1: TACTGATATTTAATGTATATTTATCTCT
DNA 2: AGAGATAAATATACATTAAATATCAGTA
B2: KAN1 1050 oligo (dsDNA)
DNA 1: TCTTACACTAATACTATATTTACACATG
DNA 2: CATGTGTAAATATAGTATTAGTGTAAGA

Molecular target: T1, WUSCHEL (His-WUS)
Assay: EMSA; supershift with anti-WUS antibody; EMSA conditions not given; as in Yadav et al 2011
Conditions: protein: recombinant; tags: His; chain copies: 2; (radiolabeled)

Binder | binding result
B1 | binds
B2 | binds
